Data taken from patent US20150064204A1 (Amgen, published 2015).
Substitutions are numbered along the chain they refer to.

B1: 7A10 (antibody, human IgG1, kappa, V domains shown)
VH: QVQLVESGGGVVQPGRSLRLSCAASGFTFSSYGMHWVRQAPGKGLEWMAVIWYVGSNKYYADSVKGRFTISRDNSKNTLYLQMNSLSAEDTAVYYCARGGELGRDYYSGMDVWGQGTTVTVSS
VL: DIQMTQSPSSLSASVGDRVTITCRASQGIRNDLGWYQQKPGKAPKRLIYAASSLQSGVPSRFSGSGSGTEFTLTISSLQPEDFATYYCQQHNSYPWTFGQGTKVEIKR
notes: Parental fully human antibody; also called Ab18; SS-10944
B2: 33C9v3 (antibody, human IgG1, kappa, V domains shown)
VH: B1 VH with L4V, M48V, A49S, V54E, S63T, S87R, E101L, R104Y, D105Y, S108Y
VL: B1 VL with A50D, Q89L, N92H
notes: Engineered variant; also called Ab52; SS-16949
B3: 33C9v4 (antibody, human IgG1, kappa, V domains shown)
VH: B1 VH with L4V, M48V, A49S, V54E, D62E, S87R, E101L, R104Y, D105Y, S108Y
VL: B1 VL with R46L, A50D, Q89L, N92H
notes: Engineered variant; also called Ab53; SS-16950
B4: 33C9v1 (antibody, human IgG1, kappa, V domains shown)
VH: B1 VH with L4V, M48V, A49S, V54E, S87R, E101L, R104Y, D105Y, S108Y
VL: B1 VL with R46L, A50D, Q89L, N92H
notes: Engineered variant; also called Ab50; SS-16948
B5: 7A10v4 (antibody, human IgG1, kappa, V domains shown)
VH: B1 VH with S63T, S87R
VL: B1 VL
notes: Engineered variant; also called Ab42; SS-16940
B6: 9H6v5 (antibody, human IgG1, kappa, V domains shown)
VH: B1 VH with A23V, V37I, M48V, V54E, D62E, S87R, E101R, R104K
VL: B1 VL with R46L, A51T, Q89L, S93T
notes: Engineered variant; also called Ab48; SS-16946
B7: 41G5v5 (antibody, human IgG1, kappa, V domains shown)
VH: B1 VH with M48V, V54P, S63T, S87R, D105Y, S108Y
VL: B1 VL with I21V, R46L, Q89L, S93N, E105D
notes: Engineered variant; also called Ab59; SS-16955
B8: 33C9 (antibody, human IgG1, kappa, V domains shown)
VH: B1 VH with L4V, M48V, A49S, V54E, S87R, E101L, R104Y, D105Y, S108Y
VL: B1 VL with A50D, Q89L, N92H
notes: Parental fully human antibody; also called Ab2; SS-12413
B9: 9H6v6 (antibody, human IgG1, kappa, V domains shown)
VH: B1 VH with A23V, V37I, M48V, V54E, S63T, S87R, E101R, R104K
VL: B1 VL with R46L, A51T, Q89L, S93T
notes: Engineered variant; also called Ab49; SS-16947
B10: 41G5 (antibody, human IgG1, kappa, V domains shown)
VH: B1 VH with M48V, V54P, S87R, D105Y, S108Y
VL: B1 VL with I21V, Q89L, S93N, E105D
notes: Parental fully human antibody; also called Ab7; SS-12428
B11: 9H6v4 (antibody, human IgG1, kappa, V domains shown)
VH: B1 VH with A23V, V37I, M48V, V54E, S63T, S87R, E101R, R104K
VL: B1 VL with A51T, Q89L, S93T
notes: Engineered variant; also called Ab47; SS-16945
B12: 9H6 (antibody, human IgG1, kappa, V domains shown)
VH: B1 VH with A23V, V37I, M48V, V54E, S87R, E101R, R104K
VL: B1 VL with K45N, A51T, Q89L, S93T
notes: Parental fully human antibody; also called Ab19; SS-10945
B13: 41G5v4 (antibody, human IgG1, kappa, V domains shown)
VH: B1 VH with M48V, V54P, D62E, S87R, D105Y, S108Y
VL: B1 VL with I21V, R46L, Q89L, S93N, E105D
notes: Engineered variant; also called Ab58; SS-16954
B14: 9H6v1 (antibody, human IgG1, kappa, V domains shown)
VH: B1 VH with A23V, V37I, M48V, V54E, S87R, E101R, R104K
VL: B1 VL with A51T, Q89L, S93T
notes: Engineered variant; also called Ab44; SS-16943
B15: 7A10v2 (antibody, human IgG1, kappa, V domains shown)
VH: B1 VH with S87R
VL: B1 VL with R46L
notes: Engineered variant; also called Ab40; SS-16938
B16: 41G5v3 (antibody, human IgG1, kappa, V domains shown)
VH: B1 VH with M48V, V54P, S63T, S87R, D105Y, S108Y
VL: B1 VL with I21V, Q89L, S93N, E105D
notes: Engineered variant; also called Ab57; SS-16953
B17: 7A10v5 (antibody, human IgG1, kappa, V domains shown)
VH: B1 VH with D62E, S87R
VL: B1 VL with R46L
notes: Engineered variant; also called Ab43; SS-16941
B18: 41G5v1 (antibody, human IgG1, kappa, V domains shown)
VH: B1 VH with M48V, V54P, S87R, D105Y, S108Y
VL: B1 VL with I21V, R46L, Q89L, S93N, E105D
notes: Engineered variant; also called Ab55; SS-16952
B19: 7A10v3 (antibody, human IgG1, kappa, V domains shown)
VH: B1 VH with D62E, S87R
VL: B1 VL
notes: Engineered variant; also called Ab41; SS-16939
B20: 9H6v2 (antibody, human IgG1, kappa, V domains shown)
VH: B1 VH with A23V, V37I, M48V, V54E, S87R, E101R, R104K
VL: B1 VL with R46L, A51T, Q89L, S93T
notes: Engineered variant; also called Ab45; SS-16944
B21: 5H7v5 (antibody, human IgG1, kappa, V domains shown)
VH: QVQLQESGPGLVKPSETLSLTCTVSGGSISSGGYFWSWIRQPPGKGLEWIGYIYYSGTTYYNPSLKSRVTISIDTSKNQFSLKLSSVTAADTAVYYCARDLFYYESSGPRGFEPWGQGTLVTVSS
VL: EIVLTQSPGTLSLSPGERATLSCRASQTVSSNYLAWYQQKPGQAPRLLIYGSSTRATGIPDRFSGSGSGTDFTLTISRLEPEDFAVYYCQQYDSSPWTFGQGTKVEIKR
B22: 5H7v1 (antibody, human IgG1, kappa, V domains shown)
VH: B21 VH with E113D
VL: B21 VL
B23: 5H7v10 (antibody, human IgG1, kappa, V domains shown)
VH: B21 VH with E105D, E113D
VL: B21 VL with D93E
B24: 5H7v17 (antibody, human IgG1, kappa, V domains shown)
VH: B21 VH with E105D, S106T, E113D
VL: B21 VL with S94T
B25: 5H7v11 (antibody, human IgG1, kappa, V domains shown)
VH: B21 VH with E105D, E113D
VL: B21 VL with S94T
B26: 5H7v13 (antibody, human IgG1, kappa, V domains shown)
VH: B21 VH with E105D, S106T, E113D
VL: B21 VL with D93E

biological target: T1, human GITR (human, UniProt Q9Y5U5 26-241); test: flow cytometry on activated human T cells
T1 construct: also called TNFRSF18; Glucocorticoid-induced TNFR-related gene
T1 sequence: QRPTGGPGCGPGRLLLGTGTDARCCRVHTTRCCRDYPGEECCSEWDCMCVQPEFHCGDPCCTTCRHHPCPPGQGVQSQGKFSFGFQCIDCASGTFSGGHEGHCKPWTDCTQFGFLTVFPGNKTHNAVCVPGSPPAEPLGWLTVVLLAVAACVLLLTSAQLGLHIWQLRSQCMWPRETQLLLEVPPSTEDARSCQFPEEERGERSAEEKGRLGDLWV

Binder | EC50 [µg/mL]
B1 | 0.067
B2 | 0.056
B3 | 0.082
B4 | 0.078
B5 | 0.002
B6 | 0.38
B7 | 0.064
B8 | 0.06
B9 | 0.411
B10 | 0.055
B11 | 0.095
B12 | 0.134
B13 | 0.068
B14 | 0.144
B15 | 0.861
B16 | 0.06
B17 | 0.783
B18 | 0.06
B19 | 0.003
B20 | 0.423

biological target: T1, human GITR; test: cell-based or functional assay

Binder | Proliferation (Fold over CD3) [fold over CD3] | Proliferation EC50 [µg/mL]
B21 | 1.4 | 0.021
B22 | 1 | 0.033
B23 | 0.6 | 0.039
B24 | 3 | 0.024
B25 | 2 | 0.032
B26 | 1.2 | 0.113
B1 | 3.4 | 0.012
B2 | 3.1 | 0.025
B3 | 2.6 | 0.017
B4 | 2.1 | 0.018
B5 | 60 | 0.006
B6 | 1.9 | 0.011
B7 | 2.5 | 0.012
B8 | 2.7 | 0.01
B9 | 1.5 | 0.011
B10 | 3.7 | 0.004
B11 | 3.3 | 0.007
B12 | 3 | 0.007
B13 | 2.2 | 0.015
B14 | 3.2 | 0.004
B15 | 0.7 | 0.043
B16 | 3.4 | 0.007
B17 | 0.6 | 0.02
B18 | 2.9 | 0.017
B19 | 55 | 0.046
B20 | 2.2 | 0.019
